Assay results as given in patent US20180155451A1 (published 2018).

T1: FcγRIIb extracellular domain with C-terminal His tag (human, UniProt P31994 43-217)
T1 construct: extracellular domain; Soluble receptor expressed in FreeStyle293 cells and used as analyte in Biacore; also called FcgRIIb; 2b; not shown: His tag at the C terminus
T1 sequence (looked up): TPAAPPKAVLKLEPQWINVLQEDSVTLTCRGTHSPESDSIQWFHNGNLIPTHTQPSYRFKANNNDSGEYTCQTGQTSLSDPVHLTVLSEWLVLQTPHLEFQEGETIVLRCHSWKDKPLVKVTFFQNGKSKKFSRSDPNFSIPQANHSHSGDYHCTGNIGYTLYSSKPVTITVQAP

B1: heterodimerized antibody GpH7-A5/GpH7-B3 variant S298_03V/GpL16-k0 (antibody, human IgG1, kappa)
heavy 1: not shown
heavy 2: not shown
light: DIVMTQSPLSLPVTPGEPASISCQASESLVHSNRNTYLHWYLQKPGQSPQLLIYKVSNRFSGVPDRFSGSGSGTDFTLKISRVEAEDVGVYYCSQNTHVPPTFGQGTKVEIERTVAAPSVFIFPPSDEQLKSGTASVVCLLNNFYPREAKVQWKVDNALQSGNSQESVTEQDSKDSTYSLSSTLTLSKADYEKHKVYACEVTHQGLSSPVTKSFNRGEC
notes: Substitution in only one H chain (GpH7-B3 side); also called He Ab
B2: heterodimerized antibody GpH7-A5/GpH7-B3 variant Y296_02A/GpL16-k0 (antibody, human IgG1, kappa)
heavy 1: not shown
heavy 2: not shown
light: B1 light
notes: as for B1
B3: heterodimerized antibody GpH7-A5/GpH7-B3 variant S298_07I/GpL16-k0 (antibody, human IgG1, kappa)
heavy 1: not shown
heavy 2: not shown
light: B1 light
notes: as for B1
B4: heterodimerized antibody GpH7-A5/GpH7-B3 variant Y296_03V/GpL16-k0 (antibody, human IgG1, kappa)
heavy 1: not shown
heavy 2: not shown
light: B1 light
notes: as for B1
B5: heterodimerized antibody GpH7-A5/GpH7-B3 variant Y296_07I/GpL16-k0 (antibody, human IgG1, kappa)
heavy 1: not shown
heavy 2: not shown
light: B1 light
notes: as for B1
B6: heterodimerized antibody GpH7-A5/GpH7-B3 variant Y296_19Q/GpL16-k0 (antibody, human IgG1, kappa)
heavy 1: not shown
heavy 2: not shown
light: B1 light
notes: as for B1
B7: heterodimerized antibody GpH7-A5/GpH7-B3 variant Y296_08L/GpL16-k0 (antibody, human IgG1, kappa)
heavy 1: not shown
heavy 2: not shown
light: B1 light
notes: as for B1
B8: heterodimerized antibody GpH7-A5/GpH7-B3 variant S298_05P/GpL16-k0 (antibody, human IgG1, kappa)
heavy 1: not shown
heavy 2: not shown
light: B1 light
notes: as for B1
B9: heterodimerized antibody GpH7-A5/GpH7-B3 variant Y296_12R/GpL16-k0 (antibody, human IgG1, kappa)
heavy 1: not shown
heavy 2: not shown
light: B1 light
notes: as for B1
B10: heterodimerized antibody GpH7-A5/GpH7-B3 variant Y296_05P/GpL16-k0 (antibody, human IgG1, kappa)
heavy 1: not shown
heavy 2: not shown
light: B1 light
notes: as for B1
B11: heterodimerized antibody GpH7-A5/GpH7-B3 variant S298_04F/GpL16-k0 (antibody, human IgG1, kappa)
heavy 1: not shown
heavy 2: not shown
light: B1 light
notes: as for B1
B12: heterodimerized antibody GpH7-A5/GpH7-B3 variant Y296_11K/GpL16-k0 (antibody, human IgG1, kappa)
heavy 1: not shown
heavy 2: not shown
light: B1 light
notes: as for B1
B13: heterodimerized antibody GpH7-A5/GpH7-B3 variant Y296_13S/GpL16-k0 (antibody, human IgG1, kappa)
heavy 1: not shown
heavy 2: not shown
light: B1 light
notes: as for B1
B14: GpH7-A5/GpH7-B3 variant P271_14T/GpL16-k0 (antibody, human IgG1, kappa)
heavy 1: not shown
heavy 2: not shown
light: B1 light
notes: mutation in one H chain only; also called He Ab P271_14T; P271T
B15: GpH7-A5/GpH7-B3 variant P271_15Y/GpL16-k0 (antibody, human IgG1, kappa)
heavy 1: not shown
heavy 2: not shown
light: B1 light
notes: mutation in one H chain only; also called He Ab P271_15Y; P271Y
B16: GpH7-A5/GpH7-B3 variant P271_16H/GpL16-k0 (antibody, human IgG1, kappa)
heavy 1: not shown
heavy 2: not shown
light: B1 light
notes: mutation in one H chain only; also called He Ab P271_16H; P271H
B17: GpH7-B3 variant Q295_16H/GpL16-k0 (antibody, human IgG1, kappa)
heavy: not shown
light: B1 light
notes: mutation in both H chains; also called Ho Ab Q295_16H; Q295H
B18: GpH7-B3 variant P329_01G/GpL16-k0 (antibody, human IgG1, kappa)
heavy: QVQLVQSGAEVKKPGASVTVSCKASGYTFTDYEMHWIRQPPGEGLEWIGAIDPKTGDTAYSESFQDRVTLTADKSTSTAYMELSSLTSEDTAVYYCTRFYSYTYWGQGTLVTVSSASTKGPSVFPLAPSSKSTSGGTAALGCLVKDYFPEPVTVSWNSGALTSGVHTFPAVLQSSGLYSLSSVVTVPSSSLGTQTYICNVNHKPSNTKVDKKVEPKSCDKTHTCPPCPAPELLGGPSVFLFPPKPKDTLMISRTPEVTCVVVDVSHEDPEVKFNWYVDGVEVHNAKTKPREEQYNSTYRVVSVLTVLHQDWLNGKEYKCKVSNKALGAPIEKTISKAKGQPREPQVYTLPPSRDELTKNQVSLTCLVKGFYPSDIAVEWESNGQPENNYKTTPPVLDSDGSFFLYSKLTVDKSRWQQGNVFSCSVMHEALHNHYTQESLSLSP
light: B1 light
notes: mutation in both H chains; also called Ho Ab P329_01G; P329G
B19: GpH7-B3 variant P271_15Y/GpL16-k0 (antibody, human IgG1, kappa)
heavy: not shown
light: B1 light
notes: mutation in both H chains; also called Ho Ab P271_15Y; P271Y
B20: GpH7-B3 variant P271_14T/GpL16-k0 (antibody, human IgG1, kappa)
heavy: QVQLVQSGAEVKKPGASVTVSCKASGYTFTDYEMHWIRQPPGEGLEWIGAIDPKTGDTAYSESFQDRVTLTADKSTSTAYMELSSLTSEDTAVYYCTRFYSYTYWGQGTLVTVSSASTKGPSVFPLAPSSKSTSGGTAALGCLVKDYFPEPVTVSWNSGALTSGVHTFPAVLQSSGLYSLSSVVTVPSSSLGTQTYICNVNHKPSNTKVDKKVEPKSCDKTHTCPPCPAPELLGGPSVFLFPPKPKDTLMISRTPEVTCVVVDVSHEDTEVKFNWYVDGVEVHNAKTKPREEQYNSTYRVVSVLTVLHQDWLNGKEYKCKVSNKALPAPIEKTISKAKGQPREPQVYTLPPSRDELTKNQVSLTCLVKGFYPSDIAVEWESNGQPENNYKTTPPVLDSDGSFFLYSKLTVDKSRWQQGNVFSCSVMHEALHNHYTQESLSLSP
light: B1 light
notes: mutation in both H chains; also called Ho Ab P271_14T; P271T
B21: GpH7-B3 variant Q295_04F/GpL16-k0 (antibody, human IgG1, kappa)
heavy: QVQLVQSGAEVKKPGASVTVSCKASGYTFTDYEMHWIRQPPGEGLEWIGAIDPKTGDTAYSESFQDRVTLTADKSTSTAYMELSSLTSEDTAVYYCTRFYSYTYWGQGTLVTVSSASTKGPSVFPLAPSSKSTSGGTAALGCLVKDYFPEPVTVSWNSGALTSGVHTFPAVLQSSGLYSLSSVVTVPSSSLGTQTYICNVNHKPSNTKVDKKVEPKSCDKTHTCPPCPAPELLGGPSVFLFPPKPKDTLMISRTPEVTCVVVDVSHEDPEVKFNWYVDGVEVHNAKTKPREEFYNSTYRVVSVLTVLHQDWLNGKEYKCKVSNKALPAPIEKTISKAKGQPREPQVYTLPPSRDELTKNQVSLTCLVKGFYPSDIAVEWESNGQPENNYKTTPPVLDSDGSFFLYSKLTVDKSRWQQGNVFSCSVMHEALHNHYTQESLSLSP
light: B1 light
notes: mutation in both H chains; also called Ho Ab Q295_04F; Q295F
B22: GpH7-B3 variant Q295_08L/GpL16-k0 (antibody, human IgG1, kappa)
heavy: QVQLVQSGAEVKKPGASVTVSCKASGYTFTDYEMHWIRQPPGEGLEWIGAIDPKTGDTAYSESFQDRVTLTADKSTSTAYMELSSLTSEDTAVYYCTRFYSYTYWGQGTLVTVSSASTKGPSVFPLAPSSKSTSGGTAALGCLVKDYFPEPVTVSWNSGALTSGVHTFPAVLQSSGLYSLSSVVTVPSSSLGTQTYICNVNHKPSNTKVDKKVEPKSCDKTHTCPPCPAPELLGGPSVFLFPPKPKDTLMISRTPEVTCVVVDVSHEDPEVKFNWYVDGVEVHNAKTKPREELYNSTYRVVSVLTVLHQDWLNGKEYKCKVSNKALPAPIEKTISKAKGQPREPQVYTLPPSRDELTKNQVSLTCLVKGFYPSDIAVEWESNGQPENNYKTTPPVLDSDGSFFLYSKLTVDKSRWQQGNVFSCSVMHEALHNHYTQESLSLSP
light: B1 light
notes: mutation in both H chains; also called Ho Ab Q295_08L; Q295L
B23: GpH7-B3 variant Q295_18N/GpL16-k0 (antibody, human IgG1, kappa)
heavy: not shown
light: B1 light
notes: mutation in both H chains; also called Ho Ab Q295_18N; Q295N
B24: GpH7-B3 variant P329_02A/GpL16-k0 (antibody, human IgG1, kappa)
heavy: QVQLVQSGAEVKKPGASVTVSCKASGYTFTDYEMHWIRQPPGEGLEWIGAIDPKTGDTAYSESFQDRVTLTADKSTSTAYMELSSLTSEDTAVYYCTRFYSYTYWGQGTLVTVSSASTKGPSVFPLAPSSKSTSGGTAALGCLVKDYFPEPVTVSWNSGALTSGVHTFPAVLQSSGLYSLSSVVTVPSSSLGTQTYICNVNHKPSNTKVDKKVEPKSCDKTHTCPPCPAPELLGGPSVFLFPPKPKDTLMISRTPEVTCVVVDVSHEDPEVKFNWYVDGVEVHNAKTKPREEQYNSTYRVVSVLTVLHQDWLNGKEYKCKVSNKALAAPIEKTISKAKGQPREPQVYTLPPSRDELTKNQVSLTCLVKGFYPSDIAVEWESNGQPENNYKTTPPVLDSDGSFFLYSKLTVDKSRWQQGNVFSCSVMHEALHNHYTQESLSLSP
light: B1 light
notes: mutation in both H chains; also called Ho Ab P329_02A; P329A
B25: GpH7-B3 variant Q295_05P/GpL16-k0 (antibody, human IgG1, kappa)
heavy: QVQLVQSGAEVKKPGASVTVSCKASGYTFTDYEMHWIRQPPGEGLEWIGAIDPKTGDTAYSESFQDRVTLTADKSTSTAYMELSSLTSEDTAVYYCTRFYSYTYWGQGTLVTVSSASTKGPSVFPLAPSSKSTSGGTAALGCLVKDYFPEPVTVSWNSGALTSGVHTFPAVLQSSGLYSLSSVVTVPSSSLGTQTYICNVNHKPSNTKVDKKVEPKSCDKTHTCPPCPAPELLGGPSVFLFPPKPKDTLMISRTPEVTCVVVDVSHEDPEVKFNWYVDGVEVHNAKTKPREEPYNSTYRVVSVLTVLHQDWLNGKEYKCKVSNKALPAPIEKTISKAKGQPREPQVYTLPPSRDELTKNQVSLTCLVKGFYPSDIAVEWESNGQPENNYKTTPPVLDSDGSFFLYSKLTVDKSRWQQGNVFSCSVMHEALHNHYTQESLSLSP
light: B1 light
notes: mutation in both H chains; also called Ho Ab Q295_05P; Q295P
B26: GpH7-B3 variant P271_16H/GpL16-k0 (antibody, human IgG1, kappa)
heavy: not shown
light: B1 light
notes: mutation in both H chains; also called Ho Ab P271_16H; P271H
B27: GpH7-B3 variant Q295_03V/GpL16-k0 (antibody, human IgG1, kappa)
heavy: not shown
light: B1 light
notes: mutation in both H chains; also called Ho Ab Q295_03V; Q295V
B28: GpH7-B3 variant Q295_14T/GpL16-k0 (antibody, human IgG1, kappa)
heavy: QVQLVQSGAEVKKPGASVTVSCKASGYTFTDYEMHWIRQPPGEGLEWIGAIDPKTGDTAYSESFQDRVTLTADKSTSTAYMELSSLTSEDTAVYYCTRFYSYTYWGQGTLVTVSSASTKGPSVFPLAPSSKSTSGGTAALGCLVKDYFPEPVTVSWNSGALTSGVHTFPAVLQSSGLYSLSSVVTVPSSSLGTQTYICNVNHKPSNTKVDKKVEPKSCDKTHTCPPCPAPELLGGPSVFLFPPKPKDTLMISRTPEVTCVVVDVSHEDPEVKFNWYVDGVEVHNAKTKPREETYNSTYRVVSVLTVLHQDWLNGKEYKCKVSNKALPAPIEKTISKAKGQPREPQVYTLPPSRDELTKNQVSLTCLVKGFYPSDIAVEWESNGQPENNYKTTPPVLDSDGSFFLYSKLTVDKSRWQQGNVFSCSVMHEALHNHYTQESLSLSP
light: B1 light
notes: mutation in both H chains; also called Ho Ab Q295_14T; Q295T
B29: GpH7-B3 variant Q295_07I/GpL16-k0 (antibody, human IgG1, kappa)
heavy: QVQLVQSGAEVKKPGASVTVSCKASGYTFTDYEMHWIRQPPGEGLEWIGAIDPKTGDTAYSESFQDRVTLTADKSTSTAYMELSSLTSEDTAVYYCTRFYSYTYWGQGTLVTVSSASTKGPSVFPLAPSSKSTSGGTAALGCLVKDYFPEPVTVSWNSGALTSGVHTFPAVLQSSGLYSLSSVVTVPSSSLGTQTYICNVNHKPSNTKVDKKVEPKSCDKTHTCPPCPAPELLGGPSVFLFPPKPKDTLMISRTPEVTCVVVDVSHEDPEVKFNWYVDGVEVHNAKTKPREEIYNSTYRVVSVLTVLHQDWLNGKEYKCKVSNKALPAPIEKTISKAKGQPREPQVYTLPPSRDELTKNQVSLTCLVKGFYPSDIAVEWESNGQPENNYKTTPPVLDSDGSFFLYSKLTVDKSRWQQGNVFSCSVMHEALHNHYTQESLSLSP
light: B1 light
notes: mutation in both H chains; also called Ho Ab Q295_07I; Q295I
B30: GpH7-B3 variant Q295_09D/GpL16-k0 (antibody, human IgG1, kappa)
heavy: not shown
light: B1 light
notes: mutation in both H chains; also called Ho Ab Q295_09D; Q295D
B31: GpH7-B3 variant S239_01G/GpL16-k0 (antibody, human IgG1, kappa)
heavy: not shown
light: B1 light
notes: mutation in both H chains; also called Ho Ab S239_01G; S239G
B32: GpH7-B3 variant Q295_13S/GpL16-k0 (antibody, human IgG1, kappa)
heavy: not shown
light: B1 light
notes: mutation in both H chains; also called Ho Ab Q295_13S; Q295S
B33: GpH7-B3 variant Q295_11K/GpL16-k0 (antibody, human IgG1, kappa)
heavy: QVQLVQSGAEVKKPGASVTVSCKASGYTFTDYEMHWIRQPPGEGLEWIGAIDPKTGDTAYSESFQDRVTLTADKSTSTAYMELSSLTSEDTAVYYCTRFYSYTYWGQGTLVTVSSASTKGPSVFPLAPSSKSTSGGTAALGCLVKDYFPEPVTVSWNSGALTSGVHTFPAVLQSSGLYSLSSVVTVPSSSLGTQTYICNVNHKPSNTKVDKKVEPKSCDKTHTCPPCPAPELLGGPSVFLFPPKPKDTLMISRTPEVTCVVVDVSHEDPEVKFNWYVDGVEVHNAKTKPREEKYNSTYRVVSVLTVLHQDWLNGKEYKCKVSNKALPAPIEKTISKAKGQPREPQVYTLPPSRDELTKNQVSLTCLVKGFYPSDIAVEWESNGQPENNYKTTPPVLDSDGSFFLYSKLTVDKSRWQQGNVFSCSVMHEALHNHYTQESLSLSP
light: B1 light
notes: mutation in both H chains; also called Ho Ab Q295_11K; Q295K
B34: GpH7-B3 variant Q295_15Y/GpL16-k0 (antibody, human IgG1, kappa)
heavy: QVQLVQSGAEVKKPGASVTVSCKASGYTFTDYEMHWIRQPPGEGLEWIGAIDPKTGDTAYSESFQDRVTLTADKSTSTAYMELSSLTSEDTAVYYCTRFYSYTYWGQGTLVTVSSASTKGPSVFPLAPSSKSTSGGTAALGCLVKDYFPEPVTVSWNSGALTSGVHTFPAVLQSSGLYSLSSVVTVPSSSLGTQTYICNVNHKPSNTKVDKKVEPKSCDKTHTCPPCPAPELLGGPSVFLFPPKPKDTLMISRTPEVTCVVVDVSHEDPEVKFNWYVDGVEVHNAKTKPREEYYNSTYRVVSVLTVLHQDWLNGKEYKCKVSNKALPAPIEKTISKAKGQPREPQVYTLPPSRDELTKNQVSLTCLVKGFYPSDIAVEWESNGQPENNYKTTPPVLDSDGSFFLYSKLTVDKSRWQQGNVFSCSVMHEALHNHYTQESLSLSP
light: B1 light
notes: mutation in both H chains; also called Ho Ab Q295_15Y; Q295Y

Target: T2, FcγRIa extracellular domain with C-terminal His tag (human, UniProt P12314 16-292)
T2 construct: extracellular domain; Soluble receptor expressed in FreeStyle293 cells and used as analyte in Biacore; also called FcgRI; 1a; not shown: His tag at the C terminus
Test: SPR Biacore, relative binding amount
T2 sequence (P12314 16-292): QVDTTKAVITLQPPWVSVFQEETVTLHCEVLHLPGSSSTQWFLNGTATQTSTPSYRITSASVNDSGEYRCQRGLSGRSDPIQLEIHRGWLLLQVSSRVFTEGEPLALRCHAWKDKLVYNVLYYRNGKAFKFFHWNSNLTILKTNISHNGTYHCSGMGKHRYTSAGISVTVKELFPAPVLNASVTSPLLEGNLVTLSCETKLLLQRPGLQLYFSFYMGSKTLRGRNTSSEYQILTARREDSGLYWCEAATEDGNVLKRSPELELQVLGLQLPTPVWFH

Binder | He/Con_1a
B1 | 110 % of GpH7-A5/GpH7-B3/GpL16-k0 (=100)
B2 | 103 % of GpH7-A5/GpH7-B3/GpL16-k0 (=100)
B3 | 107 % of GpH7-A5/GpH7-B3/GpL16-k0 (=100)
B4 | 104 % of GpH7-A5/GpH7-B3/GpL16-k0 (=100)
B5 | 104 % of GpH7-A5/GpH7-B3/GpL16-k0 (=100)
B6 | 112 % of GpH7-A5/GpH7-B3/GpL16-k0 (=100)
B7 | 104 % of GpH7-A5/GpH7-B3/GpL16-k0 (=100)
B8 | 91.6 % of GpH7-A5/GpH7-B3/GpL16-k0 (=100)
B9 | 106 % of GpH7-A5/GpH7-B3/GpL16-k0 (=100)
B10 | 95.6 % of GpH7-A5/GpH7-B3/GpL16-k0 (=100)
B11 | 109 % of GpH7-A5/GpH7-B3/GpL16-k0 (=100)
B12 | 105 % of GpH7-A5/GpH7-B3/GpL16-k0 (=100)
B13 | 105 % of GpH7-A5/GpH7-B3/GpL16-k0 (=100)

Target: T1, FcγRIIb extracellular domain with …
Test: SPR Biacore, relative binding amount

Binder | He/Con_2b
B1 | 64.5 % of GpH7-A5/GpH7-B3/GpL16-k0 (=100)
B2 | 82 % of GpH7-A5/GpH7-B3/GpL16-k0 (=100)
B3 | 70.6 % of GpH7-A5/GpH7-B3/GpL16-k0 (=100)
B4 | 79.3 % of GpH7-A5/GpH7-B3/GpL16-k0 (=100)
B5 | 84.3 % of GpH7-A5/GpH7-B3/GpL16-k0 (=100)
B6 | 89.3 % of GpH7-A5/GpH7-B3/GpL16-k0 (=100)
B7 | 82.3 % of GpH7-A5/GpH7-B3/GpL16-k0 (=100)
B8 | 11.9 % of GpH7-A5/GpH7-B3/GpL16-k0 (=100)
B9 | 79.5 % of GpH7-A5/GpH7-B3/GpL16-k0 (=100)
B10 | 36.6 % of GpH7-A5/GpH7-B3/GpL16-k0 (=100)
B11 | 65.4 % of GpH7-A5/GpH7-B3/GpL16-k0 (=100)
B12 | 72.8 % of GpH7-A5/GpH7-B3/GpL16-k0 (=100)
B13 | 86.3 % of GpH7-A5/GpH7-B3/GpL16-k0 (=100)

Target: T2, FcγRIa extracellular domain with …
Test: SPR Biacore; relative binding to FcγRIa divided by that to FcγRIIb

Binder | Ia/IIb He_1a/2b
B1 | 1.7 ratio of He/Con_1a to He/Con_2b
B2 | 1.26 ratio of He/Con_1a to He/Con_2b
B3 | 1.52 ratio of He/Con_1a to He/Con_2b
B4 | 1.31 ratio of He/Con_1a to He/Con_2b
B5 | 1.24 ratio of He/Con_1a to He/Con_2b
B6 | 1.25 ratio of He/Con_1a to He/Con_2b
B7 | 1.26 ratio of He/Con_1a to He/Con_2b
B8 | 7.7 ratio of He/Con_1a to He/Con_2b
B9 | 1.34 ratio of He/Con_1a to He/Con_2b
B10 | 2.61 ratio of He/Con_1a to He/Con_2b
B11 | 1.67 ratio of He/Con_1a to He/Con_2b
B12 | 1.44 ratio of He/Con_1a to He/Con_2b
B13 | 1.22 ratio of He/Con_1a to He/Con_2b

Target: T3, FcγRIa extracellular domain with C-terminal His tag (human, UniProt P12314 16-292)
T3 construct: extracellular domain; also called FcgRI; CD64; not shown: His tag at the C terminus
Test: SPR Biacore, relative FcγRIa binding vs GpH7-A5/GpH7-B3/GpL16-k0
T3 sequence (P12314 16-292): as above

Binder | He/Con_1a
B14 | 102 % of HeCon Ab (=100)
B15 | 103 % of HeCon Ab (=100)
B16 | 102 % of HeCon Ab (=100)

Target: T3, FcγRIa extracellular domain with …
Test: SPR Biacore, relative FcγRIa binding vs GpH7-B3/GpL16-k0

Binder | Ho/Con_1a
B17 | 99.1 % of HoCon Ab (=100)
B18 | 89.5 % of HoCon Ab (=100)
B19 | 99.4 % of HoCon Ab (=100)
B20 | 99.5 % of HoCon Ab (=100)
B21 | 100 % of HoCon Ab (=100)
B22 | 103 % of HoCon Ab (=100)
B23 | 101 % of HoCon Ab (=100)
B24 | 98.2 % of HoCon Ab (=100)
B25 | 101 % of HoCon Ab (=100)
B26 | 99.4 % of HoCon Ab (=100)
B27 | 102 % of HoCon Ab (=100)
B28 | 102 % of HoCon Ab (=100)
B29 | 101 % of HoCon Ab (=100)
B30 | 96.8 % of HoCon Ab (=100)
B31 | 101 % of HoCon Ab (=100)
B32 | 101 % of HoCon Ab (=100)
B33 | 99.9 % of HoCon Ab (=100)
B34 | 97 % of HoCon Ab (=100)
